# Article PMC3539207
# Where two headings read alike, the source gives them in different places.
# B1: INS nGRE (dsDNA)
# DNA 1: TGCTCTCCTGGAGACATT
# DNA 2: AATGTCTCCAGGAGAGCA
# B2: TSLP, low site only (dsDNA)
# DNA 1: CCGCCTCCGG
# DNA 2: CCGGAGGCGG
# B3: FGFR3 nGRE (dsDNA)
# DNA 1: CTGCCTCCCCGGAGATGG
# DNA 2: CCATCTCCGGGGAGGCAG
# B4: (+)GRE (dsDNA)
# DNA 1: CCAGAACAGAGTGTTCTGA
# DNA 2: TCAGAACACTCTGTTCTGG
# What was measured:
# Assay in all cases: fluorescence polarization
# GR DBD WT [1] = target: T1, GR DBD WT (Homo sapiens, UniProt P04150 417-506)
# GR DBD WT [2] = target: T1, GR DBD WT; remark: listed apart in the source
# GR DBD R460D/D462R = GR DBD R460D/D462R (Homo sapiens, UniProt P04150 417-506, R460D;D462R)
# GR DBD WT [3] = target: T1, GR DBD WT; remark: listed apart in the source
# T1 sequence (P04150 417-506): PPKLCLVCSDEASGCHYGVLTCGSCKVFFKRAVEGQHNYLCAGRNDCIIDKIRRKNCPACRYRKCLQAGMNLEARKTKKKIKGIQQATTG
# Sequence of GR DBD R460D/D462R (P04150 417-506 R460D/D462R): as the sequence (P04150 417-506) above, with R44D, D46R counted along it
binder,measurement,setting,value
B1,Kd,GR DBD WT [1],500 ± 70 nM
B2,Kd,GR DBD WT [2],12.7 ± 0.8 µM
B3,Kd,GR DBD WT [1],280 ± 80 nM
B4,Kd,GR DBD R460D/D462R,80 ± 7 nM
same,Kd,GR DBD WT [3],70 ± 7 nM
